How the values were obtained:
[1] = target: Bovine recombinant PrP (Prionics), P10279
[2] = target: T1, Q4, synthetic peptide Ac-EKTAGKPILF-OH
T1 chain: EKTAGKPILF

Bovine recombinant PrP (Prionics), P10279, sequence (P10279 25-242): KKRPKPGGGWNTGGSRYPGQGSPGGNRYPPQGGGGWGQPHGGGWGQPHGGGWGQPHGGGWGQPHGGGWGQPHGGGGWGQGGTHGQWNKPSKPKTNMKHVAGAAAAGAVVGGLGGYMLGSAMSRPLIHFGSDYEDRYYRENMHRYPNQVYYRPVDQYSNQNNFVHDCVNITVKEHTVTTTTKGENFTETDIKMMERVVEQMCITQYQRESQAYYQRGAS

B1: Recombinant FLAG-tagged human GPBP (expressed in yeast, FLAG-affinity purified) (protein)
chain: MSDNQSWNSSGSEEDPETESGPPVERCGVLSKWTNYIHGWQDRWVVLKNNALSYYKSEDETEYGCRGSICLSKAVITPHDFDECRFDISVNDSVWYLRAQDPDHRQQWIDAIEQHKTESGYGSESSLRRHGSMVSLVSGASGYSATSTSSFKKGHSLREKLAEMETFRDILCRQVDTLQKYFDACADAVSKDELQRDKVVEDDEDDFPTTRSDGDFLHSTNGNKEKLFPHVTPKGINGIDFKGEAITFKATTAGILATLSHCIELMVKREDSWQKRLDKETEKKRRTEEAYKNAMTELKKKSHFGGPDYEEGPNSLINEEEFFDAVEAALDRQDKIEEQSQSEKVRLHWPTSLPSGDAFSSVGTHRFVQKPYSRSSSMSSIDLVSASDDVHRFSSQVEEMVQNHMTYSLQDVGGDANWQLVVEEGEMKVYRREVEENGIVLDPLKATHAVKGVTGHEVCNYFWNVDVRNDWETTIENFHVVETLADNAIIIYQTHKRVWPASQRDVLYLSVIRKIPALTENDPETWIVCNFSVDHDSAPLNNRCVRAKINVAMICQTLVSPPEGNQEISRDNILCKITYVANVNPGGWAPASVLRAVAKREYPKFLKRFTSYVQEKTAGKPILF
[1]
  in vitro phosphorylation with [γ^32P]-ATP, autoradiography: transferred phosphates to PrP
[2]
  GPBP autophosphorylation in vitro: inhibited GPBP autophosphorylation in a more limited manner

Source: patent US20040175758
